Experimental data reported in PMC2814945 (Peptides, 2009).
Residue numbers refer to the chain shown, from its start.

Tests used:
[1] = biological target: HA-tagged human Neuropeptide S receptor, D105A mutant in the N107 background (human) (UniProt Q6W5P4)
[2] = biological target: T1, HA-tagged human Neuropeptide S receptor, N107 variant (human, UniProt Q6W5P4 1-371); experiment: cell-based or functional assay
T1 sequence (looked up): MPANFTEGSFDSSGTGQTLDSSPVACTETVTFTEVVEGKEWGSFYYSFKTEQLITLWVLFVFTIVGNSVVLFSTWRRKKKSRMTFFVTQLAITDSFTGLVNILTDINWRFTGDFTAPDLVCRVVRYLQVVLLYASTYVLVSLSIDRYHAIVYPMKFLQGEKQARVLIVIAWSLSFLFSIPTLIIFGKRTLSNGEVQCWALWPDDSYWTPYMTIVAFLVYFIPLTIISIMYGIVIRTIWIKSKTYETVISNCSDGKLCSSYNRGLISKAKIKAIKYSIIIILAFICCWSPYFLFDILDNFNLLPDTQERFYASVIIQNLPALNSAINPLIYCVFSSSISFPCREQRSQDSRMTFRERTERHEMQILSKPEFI

[3] = biological target: T2, HA-tagged human Neuropeptide S receptor, D105A mutant in the N107 background (human, UniProt Q6W5P4 1-371, D105A); experiment: cell-based or functional assay
T2 sequence (looked up): T1 sequence (looked up) with D105A

[4] = biological target: T3, HA-tagged human Neuropeptide S receptor, I107 variant (human, UniProt Q6W5P4 1-371, N107I); experiment: cell-based or functional assay
T3 sequence (looked up): T1 sequence (looked up) with N107I

[5] = biological target: T4, HA-tagged human Neuropeptide S receptor, N101A mutant in the N107 background (human, UniProt Q6W5P4 1-371, N101A); experiment: cell-based or functional assay
T4 sequence (looked up): T1 sequence (looked up) with N101A

[6] = biological target: T1, HA-tagged human Neuropeptide S …; experiment: radioligand binding
[7] = biological target: T2, HA-tagged human Neuropeptide S …; experiment: radioligand binding

human NPS 1-18 (peptide)
EC50 of receptor activation by human NPS 1-18 (unpublished data) [1]: 1000 nM

SFRNGVGTGMKKTSFQRAKS (peptide, UniProt P0C0P6 70-89, looked up) [Neuropeptide S (human)]
EC50 of NPS-mediated mobilisation of intracellular Ca2+ (FLIPR), stable clone #2 [2]: 25 nM
EC50 of NPS-mediated mobilisation of intracellular Ca2+ (FLIPR), stable clone #4 [2]: 4.9 nM
EC50 of receptor activation by human NPS 1-20 (unpublished data) [3]: ~1000 nM
EC50 of NPS-mediated mobilisation of intracellular Ca2+ (FLIPR), stable clone #4 [4]: 1.6 nM
EC50 of NPS-mediated mobilisation of intracellular Ca2+ (FLIPR), stable clone #5 [4]: 1.7 nM
EC50 of NPS-mediated mobilisation of intracellular Ca2+ (FLIPR), stable clone #2 [5]: 12 nM
EC50 of NPS-mediated mobilisation of intracellular Ca2+ (FLIPR), stable clone #6 [5]: 42 nM
IC50 [6]: 8.7 ± 1.9 nM
IC50 [7]: > 200 nM
